Test results: US5792629A, “Isolated DNA encoding novel protease inhibitory polypeptide” (Mochida Pharmaceutical Co., Ltd., priority 1990, dated 1998)
Entries after “also recorded” stand apart in the source; their conditions may differ.

Experiments:
[1] = molecular target: T1, FXa (Homo sapiens, UniProt P00742); assay: Human FXa-inhibiting activity, substrate S-2222; format: biochemical; parameters: purchased American Diagnostica Inc; details: for human FXa-inhibiting activity: purified sample, various concentrations, remaining activity vs buffer control (FIG. 18A-C)
T1 sequence (P00742 235-488 limits assumed): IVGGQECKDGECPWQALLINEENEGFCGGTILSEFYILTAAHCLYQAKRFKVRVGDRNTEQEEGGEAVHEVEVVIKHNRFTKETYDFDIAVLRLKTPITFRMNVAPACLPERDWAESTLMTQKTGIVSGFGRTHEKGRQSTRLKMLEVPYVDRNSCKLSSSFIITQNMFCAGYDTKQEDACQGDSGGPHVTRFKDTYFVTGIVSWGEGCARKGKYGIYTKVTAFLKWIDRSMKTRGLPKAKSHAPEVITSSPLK
T1 sequence (P00742 41-179 partner limits assumed): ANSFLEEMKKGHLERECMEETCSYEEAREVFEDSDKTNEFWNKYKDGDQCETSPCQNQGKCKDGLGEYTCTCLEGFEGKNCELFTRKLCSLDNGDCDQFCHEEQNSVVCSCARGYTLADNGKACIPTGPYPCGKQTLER
Experimental: The purified sample obtained in Example 1-(5) was dissolved in 100 μl of distilled water. Concentration of this solution was determined based on its bovine trypsin-inhibiting activity using the aforementioned UTI as a standard. The solution was then diluted to various concentration levels with 0.1% BSA/150 mM NaCl/5 mM CaCl2 /50 mM Tris-HCl buffer (pH 8.3) for use in the activity measurement. The UTI was also diluted in the same manner. Using a synthetic compound S-2222 (Daiichi Pure Chemicals Co., Ltd.) as a substrate, human FXa-inhibiting activities of the diluted test samples and the positive control were measured in accordance with the method of Ohno et al. (Ohno,H. et al., Thromb. Res., vol.19, pp.579-588, 1980) as follows.
Human FXa (American Diagnostica Inc.) was dissolved in distilled water to a concentration of 10 PEU/ml and the solution was further diluted with 0.1% BSA/150 mM NaCl/5 mM CaCl2 /50 mM Tris-HCl buffer (pH 8.3) to prepare 0.1 PEU/ml of FXa solution. 4 mM solution of S-2222 was prepared by dissolving it in distilled water and the solution was further diluted with 0.1% BSA/150 mM NaCl/5 MM CaCl2 /50 mM Tris-HCl buffer (pH 8.3) to obtain 2 mM solution of S-2222.
Next, 25 μl of the test sample or positive control was mixed with 100 μl of 0.1% BSA/150 mM NaCl/5 mM CaCl2 /50 mM Tris-HCl buffer (pH 8.3) and 25 μl of the FXa solution. After incubation at 37° C. for 10 minutes, 100 μl of the S-2222 solution was added to the mixture to start the reaction. The reaction was carried out at 37° C. for 30 minutes and then stopped by adding 50 μl of 50% acetic acid solution to the reaction mixture. Thereafter, absorbance at 405 nm was measured using a spectrophotometer.
In this instance, in order to eliminate absorbance of various solutions in the reaction mixture, a blank solution was prepared by mixing 25 μl of the FXa solution with 50 μl of 50% acetic acid and then with 25 μl of each test sample or the positive control, 100 μl of 0.1% BSA/150 mM NaCl/5 mM CaCl2 /50 mM Tris-HCl buffer (pH 8.3) and with 100 μl of the S-2222 solution.
In this figure, human FXa remaining activity was expressed by percentage based on the absorbance of a control reaction mixture in which 25 μl of 0.1% BSA/150 mM NaCl/5 mM CaCl2 /50 mM Tris-HCl buffer (pH 8.3) was used instead of the test sample or the positive control.

[2] = system: trypsin; details: literature report; cited from earlier work
[3] = system: chymotrypsin; details: literature report; cited from earlier work
[4] = molecular target: plasmin (Homo sapiens, UniProt P00747); details: literature report; cited from earlier work
Chain of plasmin (P00747 581-810 limits assumed, species assumed): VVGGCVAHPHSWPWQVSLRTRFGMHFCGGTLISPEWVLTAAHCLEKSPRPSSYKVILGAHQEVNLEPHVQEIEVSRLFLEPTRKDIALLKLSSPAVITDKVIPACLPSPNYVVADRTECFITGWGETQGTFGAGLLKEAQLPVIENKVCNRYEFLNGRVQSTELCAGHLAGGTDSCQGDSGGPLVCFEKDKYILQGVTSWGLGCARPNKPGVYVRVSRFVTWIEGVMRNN
Chain of plasmin (P00747 97-580 partner limits assumed, species assumed): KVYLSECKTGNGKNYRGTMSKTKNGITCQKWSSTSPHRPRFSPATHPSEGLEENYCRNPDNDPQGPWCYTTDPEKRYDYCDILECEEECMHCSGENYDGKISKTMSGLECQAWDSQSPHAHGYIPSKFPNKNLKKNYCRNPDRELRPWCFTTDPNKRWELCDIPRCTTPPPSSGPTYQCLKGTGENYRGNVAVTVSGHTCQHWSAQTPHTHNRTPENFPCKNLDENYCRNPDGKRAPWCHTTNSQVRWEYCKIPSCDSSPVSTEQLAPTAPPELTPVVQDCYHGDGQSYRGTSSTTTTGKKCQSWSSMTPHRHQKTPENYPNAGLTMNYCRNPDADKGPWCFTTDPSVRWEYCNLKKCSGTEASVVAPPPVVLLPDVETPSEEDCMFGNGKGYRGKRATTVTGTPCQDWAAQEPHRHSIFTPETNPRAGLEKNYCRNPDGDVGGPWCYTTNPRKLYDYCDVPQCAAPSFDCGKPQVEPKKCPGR

[5] = molecular target: T1, FXa; details: literature reports, very high concentration; cited from earlier work
[6] = system: elastase; details: literature report; cited from earlier work

In the case of “CC51: polypeptide defined by the amino acid sequence of formula 1, purified from culture supernatant of E. coli JE5505 (pM560) (CNLPIVRGPCRAFIQLWAFDAVKGKCVLFPYGGCQGNGNKFYSEKECREYC)”, the “human FXa-inhibiting activity” value [1] is reported as “activity was found”.

B1: TL66: polypeptide defined by formula 8; known enzyme-digested fragment of urinary trypsin inhibitor, made in E. coli JE5505 (pM551) (protein)
chain: TVAACNLPIVRGPCRAFIQLWAFDAVKGKCVLFPYGGCQGNGNKFYSEKECREYCGVPGDGDEELL
In the case of B1, the inhibition of trypsin [2] is given as “activities to inhibit”, the “human FXa-inhibiting activity” value [1] is given as “activity was found” and the inhibition of chymotrypsin [3] is given as “activities to inhibit”. For the same molecule, the inhibition of plasmin [4] was “activities to inhibit”.

B2: UTI: urinary trypsin inhibitor purified from human urine (Mochida Pharmaceutical), used as positive control (protein)
chain: AVLPQEEEGSGGGQLVTEVTKKEDSCQLGYSAGPCMGMTSRYFYNGTSMACETFQYGGCMGNGNNFVTEKECLQTCRTVAACNLPIVRGPCRAFIQLWAFDAVKGKCVLFPYGGCQGNGNKFYSEKECREYCGVPGDGDEELLRFSN
modifications: glycoprotein (sugar moieties, as the filing says in general of UTI)
In the case of B2, the inhibition of trypsin [2] is given as “shows the inhibition activities”, the “inhibition of FXa activity” value [5] is given as “slightly inhibited; also recorded: inhibited the FXa activity” and the inhibition of elastase [6] is given as “shows the inhibition activities”. For the same molecule, the FXa-inhibiting activity ([1]; experiments of the inventors, even at an extremely high concentration) was “no FXa-inhibiting activity was found”, the “human FXa-inhibiting activity” value [1] was “activity was not found” and the inhibition of chymotrypsin [3] was “shows the inhibition activities”. The inhibition of plasmin [4] was “shows the inhibition activities”.

B3: TN70: polypeptide defined by the amino acid sequence of formula 3, purified from culture supernatant of E. coli JE5505 (pM552) (protein)
chain: TVAACNLPIVRGPCRAFIQLWAFDAVKGKCVLFPYGGCQGNGNKFYSEKECREYCGVPGDGDEELLRFSN
For B3, the “human FXa-inhibiting activity” value [1] was “activity was found”.
